Paper PMC9859039, “The conserved centrosomin motif, γTuNA, forms a dimer that directly activates microtubule nucleation by the γ-tubulin ring complex (γTuRC)” (eLife, 2022)

B1: Strep-His-TEV-HaloTag-3C-human γTuNA (human CDK5RAP2 aa 53–98), wildtype [human] / itself (parent)
chain: SPTRARNMKDFENQITELKKENFNLKLRIYFLEERMQQEFHGPTEH
B2: Strep-His-TEV-HaloTag-3C-Xenopus γTuNA (Xenopus Cdk5rap2 aa 56–101), wildtype [Xenopus laevis] / itself (parent)
chain: MKDFEKQIAELKKENFNLKLRIYFLEEQVQQKCDNSSEDLYRMNIE

Variants of: B1
Test: size-exclusion chromatography (self-association / dimerization)
Details: with itself; 50 µM (monomer); Superdex 200 increase 10/300 GL; main peak, a minor peak near 13.1 mL is also drawn; read off a plot

screen value	Variant
15 mL	chain 1 F11A I15A L18A L25A

Same assay, conditions: with itself; 50 µM (monomer); Superdex 200 increase 10/300 GL; read off a plot

screen value	Variant
15.1 mL	chain 1 I15D L18D
15.1 mL	chain 1 I15A L18A

Same assay, conditions: with itself; 50 µM (monomer); Superdex 200 increase 10/300 GL; main peak, a minor peak near 12.9 mL is also drawn; read off a plot

screen value	Variant
15.1 mL	chain 1 F11D I15D L18D

Variants of: B2
Test: as above
Details: with itself; 50 µM (monomer); Superdex 200 increase 10/300 GL; read off a plot

screen value	Variant
15 mL	chain 1 I8D L11D
13.4 mL	chain 1 F4A
13.5 mL	chain 1 I8A
14 mL	chain 1 L11A
13.3 mL	chain 1 F16A
14.2 mL	chain 1 L18A

Same assay, conditions: with itself; 50 µM (monomer); Superdex 200 increase 10/300 GL; main peak, a minor shoulder near 13.2 mL is also drawn; read off a plot

screen value	Variant
14.2 mL	chain 1 L18A
